In paper doi:10.1101/2023.02.09.527835 (bioRxiv, 2023):

Biological target: human complement C3a (human, UniProt P01024 672-748)
Experiment: cryo-EM structure

human complement C3a, sequence (P01024 672-748): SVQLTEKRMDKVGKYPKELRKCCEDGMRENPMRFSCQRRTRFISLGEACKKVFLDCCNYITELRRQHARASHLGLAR

binding result: binds
B1: human complement C3a receptor (C3aR), full-length, FLAG-M4(2-23)-C3aR construct for cryo-EM (receptor, UniProt P08173 2-23, looked up)
chain: ANFTPVNGSSGNQSVRLVTSSSMASFSAETNSTDLLSQPWNEPPVILSMVILSLTFLLGLPGNGLVLWVAGLKMQRTVNTIWFLHLTLADLLCCLSLPFSLAHLALQGQWPYGRFLCKLIPSIIVLNMFASVFLLTAISLDRCLVVFKPIWCQNHRNVGMACSICGCIWVVAFVMCIPVFVYREIFTTDNHNRCGYKFGLSSSLDYPDFYGDPLENRSLENIVQPPGEMNDRLDPSSFQTNDHPWTVPTVFQPQTFQRPSADSLPRGSARLTSQNLYSNVFKPADVVSPKIPSGFPIEDHETSPLDNSDAFLSTHLKLFPSASSNSFYESELPQGFQDYYNLGQFTDDDQVPTPLVAITITRLVVGFLLPSVIMIACYSFIVFRMQRGRFAKSQSKTFRVAVVVVAVFLVCWTPYHIFGVLSLLTDPETPLGKTLMSWDHVCIALASANSCFNPFLYALLGKDFRKKARQSIQGILEAAFSEELTRSTHCPSNNVISERNSTTV
modifications: alkylated with iodoacetamide
